These results are taken from PMC8110955, “A synthetic RNA editing factor edits its target site in chloroplasts and bacteria”.

The target in this data set is T1, MORF9 (UniProt Q9LPZ1 75-196, C85S;C187S).
T1 sequence: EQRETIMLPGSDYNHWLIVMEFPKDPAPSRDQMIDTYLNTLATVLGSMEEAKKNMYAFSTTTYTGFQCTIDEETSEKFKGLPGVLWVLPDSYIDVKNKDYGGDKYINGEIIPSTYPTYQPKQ
Kind of data set: EMSA; MORF9 alone, up to highest concentration; REMSA: 1 nM RNA, 2x buffer is 85 mM Tris, 165 mM HEPES, 200 mM NaCl, 12.5 mM DTT, 0.25 mM EDTA, 1.25 mg/mL heparin, 0.1 mg/mL BSA; 30 min at ambient temperature; 5% polyacrylamide gel; pH not stated. The note with it: protein: recombinant; tags: N-terminal His-TEV tag cleaved off; label: 5'-Cy5; single strand. On the technique in general: A gel shift assay detects complexes by their altered migration in electrophoresis.

For AUGUAUUACACGUGCAAAAUCUGAGA (ssRNA) [rpoA_REMSA (rpoA-78691)], the binding result is “no binding”.

Regarding CAGCAACAGAAGCCCAAGCUCAUGGA (ssRNA) [clpP1_REMSA (clpP1-69942)], the binding result is on record as “no binding”.
